The labels stand for the following.
B1: Source 2 VEGF-D, purified recombinant human VEGF-D monomer (R&D Systems, Catalog Number 622-VD/CF) (ligand)
chain: FYDIETLKVIDEEWQRTQCSPRETCVEVASELGKSTNTFFKPPCVNVFRCGGCCNEESLICMNTSTSYISKQLFEISVPLTSVPELVPVKVANHTGCKCLPTAPRHPYS
B4: Source 1 VEGF-D, mature dimeric recombinant human VEGF-D (CSIRO) (ligand)
chain: FAATFYDIETLKVIDEEWQRTQCSPRETCVEVASELGKSTNTFFKPPCVNVFRCGGCCNEESLICMNTSTSYISKQLFEISVPLTSVPELVPVKVANHTGCKCLPTAPRHPYSIIRR

For assay [1], the target named is VEGFR-2-EpoR chimeric receptor on VEGFR-2-Ba/F3 cells (mouse, UniProt P35918 20-762). As to the kind of experiment: cell-based or functional assay.
VEGFR-2-EpoR chimeric receptor on VEGFR-2-Ba/F3 cells, sequence (P35918 20-762, change not shown): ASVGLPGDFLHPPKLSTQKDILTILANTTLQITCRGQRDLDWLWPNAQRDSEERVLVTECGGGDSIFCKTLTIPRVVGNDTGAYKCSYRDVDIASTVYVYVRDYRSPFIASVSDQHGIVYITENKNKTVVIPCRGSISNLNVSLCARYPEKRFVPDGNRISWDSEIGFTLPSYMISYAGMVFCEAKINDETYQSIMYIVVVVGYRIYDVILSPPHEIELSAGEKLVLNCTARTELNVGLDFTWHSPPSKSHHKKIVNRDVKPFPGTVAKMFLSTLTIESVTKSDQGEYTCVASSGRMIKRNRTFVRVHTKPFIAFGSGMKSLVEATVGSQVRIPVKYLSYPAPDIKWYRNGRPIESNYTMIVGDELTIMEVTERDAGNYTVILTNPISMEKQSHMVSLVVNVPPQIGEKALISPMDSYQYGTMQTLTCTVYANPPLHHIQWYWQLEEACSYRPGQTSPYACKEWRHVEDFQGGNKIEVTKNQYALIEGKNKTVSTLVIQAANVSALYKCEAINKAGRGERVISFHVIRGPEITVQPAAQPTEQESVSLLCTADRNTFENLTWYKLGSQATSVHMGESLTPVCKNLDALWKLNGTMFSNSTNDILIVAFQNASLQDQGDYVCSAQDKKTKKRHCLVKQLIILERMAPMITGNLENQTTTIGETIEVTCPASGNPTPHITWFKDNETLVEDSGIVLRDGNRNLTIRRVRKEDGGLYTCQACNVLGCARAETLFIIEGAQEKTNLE
For assay [2], the target named is B4. In words: cell-based or functional assay.
Assay [3] has as its target B1. As to the kind of experiment: cell-based or functional assay.
Assay [4] deals with B4. In words: SPR Protocol A, KD against that of Ig-1A. On the procedure: (§1) Protocol A: The first assay format, Protocol A, used an assay system where IgGs were captured on a biosensor chip surface using an anti-human IgG (Fc) antibody and the Source 1 VEGF-D dimer run over the chip as the analyte in solution. This ensured that all IgG molecules were presented to the antigen in an active orientation.
(§2) The SPR protocol was slightly modified to compensate for the dimeric nature of the VEGF-D. Ig-1A or IgG variants were analyzed using an anti-human capture kit as described for Anti-human IgG (Fc) capture above, except that 1000 RU of the IgG or IgG variant was captured on the anti-human chip surface. […] The kinetics generated using this approach are accurate within the experimental parameters set. This standard assay protocol is best suited to studying 1:1 interactions and thus, may not be ideal for analyzing binding between the IgG variants and the VEGF-D dimer. In light of this, Protocol B was also used.

Assay [5] deals with B4. As to the kind of experiment: SPR Protocol B, KD against that of Ig-1A. On the procedure: (§3) Protocol B: In the second assay format, Protocol B, the orientation of the IgGs and the VEGF-D antigen was reversed relative to Protocol A. The Source 1 VEGF-D dimer was immobilized directly on the chip surface by amine coupling and the murine anti-VEGF-D monoclonal antibody, Ig-1A or IgG variants flowed over this surface as analytes at concentrations of 4 nM, 1.33 nM, and 0.44 nM. This protocol allowed avidity effects to be controlled by reducing the density of dimeric VEGF-D immobilized on the chip and in effect reduce the bivalent binding properties of the system being analyzed.
(§4) All four flow cells on a CM5 chip were activated for 7 min at 25° C. using a mixture of NHS.EDC. Flow cell one was used as an unmodified (activated and blocked) reference against flow cells 2-4. Source 1 VEGF-D dimer was diluted to 1-3 μg/ml into 10 mM sodium acetate, pH 4, and injected over three surfaces for different lengths of time to achieve low ligand densities of 10, 15 and 20 RU to minimize avidity effects of the IgG. All surfaces were blocked for 7 min with ethanolamine (1M, pH 8.2) and pre-conditioned using five 10 s injections of 100 mM H₃PO₄; 1M NaCl. Immobilization steps were carried out at a flow rate of 30 μl/min using HBS-N running buffer.
(§5) All IgG binding experiments were performed at 25° C. using HBS-EP+ running buffer. Analytes (murine reference anti-VEGF-D monoclonal antibody and humanized variants) were injected for 200 s at a flow rate of 70 μl/min and dissociation monitored for 250 s. The antigen surfaces were regenerated with a 10 s pulse of 100 mM H₃PO₄; 1M NaCl. Analyte concentrations used for murine and humanized variants were 4 nM, 1.33 nM, and 0.44 nM. Data was processed using the reference surface and double referencing from blank injections. Binding constants for the IgG/antigen interactions were determined from the three antigen surfaces globally fitted to a 1:1 interaction model. Refractive index parameter was constant (RI=0).

The target in assay [6] is B4. As to the kind of experiment: SPR Protocol A, KD against that of the murine antibody.
Assay [7] deals with B4. As to the kind of experiment: SPR Protocol B, KD against that of the murine antibody. On the procedure:
as §3
All four flow cells on a CM5 chip were activated for 7 min at 25° C. using a mixture of NHS.EDC. Flow cell one was used as an unmodified (activated and blocked) reference against flow cells 2-4. […]
All IgG binding experiments were performed at 25° C. using HBS-EP+ running buffer. Analytes (murine reference anti-VEGF-D monoclonal antibody and humanized variants) were injected for 200 s at a flow rate of 70 μl/min and dissociation monitored for 250 s. […] Binding constants for the IgG/antigen interactions were determined from the three antigen surfaces globally fitted to a 1:1 interaction model. […]

Assay [8] concerns the target B4. In words: SPR Protocol B: VEGF-D dimer amine-coupled, IgG as analyte. On the procedure: as §3, §4, §5
In assay [9] the target is B4. As to the kind of experiment: SPR Protocol A: IgG captured by anti-human Fc, VEGF-D dimer as analyte. The procedure:
as §1, §2

In assay [10] the target is B4. In words: SPR, labelled Protocol B in this table.
In assay [11] the target is B1. As to the kind of experiment: SPR, IgG captured by anti-human IgG (Fc), Source 2 VEGF-D as analyte.
Assay [12] deals with B1. As to the kind of experiment: SPR, IgG captured by anti-human IgG (Fc), Source 2 VEGF-D monomer as analyte.
The target of assay [13] is B4. As to the kind of experiment: SPR, labelled Protocol A in this table; Protocol B by paragraph 399 and Table 7A, though printed as Protocol A.
Assay [14] concerns the target B4. In words: SPR; row labelled Protocol A (IgG captured by anti-human Fc, VEGF-D dimer as analyte); Protocol A line of Table 6. The procedure: as §1, §2
Assay [15] addresses T1, VEGF-D (recombinant human; source not given) (human, UniProt O43915 89-205, limits assumed).
T1 construct: also used here as target of IC50 values averaged over Source 1 and Source 2; also called vascular endothelial growth factor-D
T1 sequence: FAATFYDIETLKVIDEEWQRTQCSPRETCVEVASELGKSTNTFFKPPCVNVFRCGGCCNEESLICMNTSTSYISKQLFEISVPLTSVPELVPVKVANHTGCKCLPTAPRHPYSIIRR
In words: SPR (BIAcore), purified 1A scFv on VEGF-D, repeat 1. On the procedure:
(§6) Kinetic values were obtained for the three humanized scFv variants, 1A, 3A and 4A (Table 2). All isolated scFv samples were purified as monomer peaks by anti-FLAG affinity and gel filtration chromatography. BIAcore™ analysis was performed by directly immobilizing VEGF-D on a CM5 surface using amine coupling, with the scFv run as the analyte. Analysis of binding was carried out using the BIAevaluation kinetic analysis software. All repeats were separate protein expressions and were performed at 25° C.
(§7) The binding of purified 1A scFv to VEGF-D was analyzed using a BIAcore™ biosensor (Table 3).

Assay [16] concerns the target T1, VEGF-D (recombinant human; source not …). In words: SPR (BIAcore), purified 1A scFv on VEGF-D, repeat 2. The procedure: as §6, §7
Assay [17] shares this target. In words: SPR (BIAcore), purified 1A scFv on VEGF-D, repeat 3. On the procedure:
as §6, §7

Assay [18] shares this target. In words: SPR (BIAcore), purified 1A scFv on VEGF-D, average of three repeats. The procedure:
as §6, §7

Assay [19] has the same target. As to the kind of experiment: SPR (BIAcore), VEGF-D amine-coupled on CM5, purified scFv as analyte. On the procedure:
scFv variants were fully characterized using a BIAcore™ biosensor. All isolated scFv samples were purified as monomer peaks by anti-FLAG affinity chromatography followed by gel filtration chromatography. BIAcore™ analysis was performed by directly immobilizing VEGF-D on a CM5 surface using amine coupling, with the scFv run as the analyte. Analysis of binding was carried out using the BIAevaluation kinetic analysis software. All repeats were separate protein expressions and were performed at 25° C.
Clones F61, A63, AR7, AW61, CJ37, DI126 and DA18 were produced in large-scale expression cultures and purified by anti-FLAG affinity chromatography and gel filtration. The binding kinetics against VEGF-D were then measured using a BIAcore™ biosensor as described previously.

Assay [20] has the same target. As to the kind of experiment: SPR (BIAcore), VEGF-D amine-coupled on CM5, purified scFv as analyte, 25 C. On the procedure:
as §6

On to B1, for which, in assay [1], the “concentration within EC50-EC80 for proliferation of VEGFR-2-Ba/F3 cells” value was 0.1 µg/mL.

B2: humanized IgG antibody derived from clone HU75 (antibody, V domains shown)
VH: QVQLVQSGAEVKQPGASVKVSCKASGYTFTGYNMYWVRQAPGQGLEWMGYIDPYNGDTTYNQKFKGRVTMTTDTSTSTAYMKLRSLRSDDTAVYYCARTSYYGGMDYWGRGTLVTVAS
VL: DIVMTQTPLSGPVTLGQPASISCRSSQSLVHSNGNTYLHWLQQRPGQPPRLLIYKVSNRFSGVPDRFSGSGAGTDFTLKISRVEAEDVGVYYCSQSTHVPRTFGRGTKLEIKR
notes: IgG
Turning to B2, the “rank in the VEGFR-3-Ba/F3 bioassay” value turned out to be 7 rank in assay [2] and 5 rank in assay [3]. The “Fold-improvement with respect to Ig-1A” value in assay [4] is 5.5 fold; in [5] it was 4.4 fold. In addition, the “fold improvement over the original murine anti-VEGF-D monoclonal antibody” value came out at 23.6 fold in assay [6] and 11.5 fold in assay [7]. In addition, the dissociation constant Kd in assay [8] stood at 0.4 nM; in assay [9] it was 0.127 nM. In addition, the figures for the koff in assay [8] and in assay [9] were 0.0019 s⁻¹ and 5.8e-05 s⁻¹, respectively. For the same molecule, the kon in assay [8] came out at 4.8e+06 M⁻¹ s⁻¹; in assay [9], 460000 M⁻¹ s⁻¹.

B3: Ig-1A, humanized IgG reformatted from scFv 1A (antibody, V domains shown)
VH: QVQLVQSGAEVKQPGASVKVSCKASGYTFTGYNMYWVRQAPGQGLEWMGYIDPYNGDTTYNQKFKGRVTMTTDTSTSTAYMELRSLRSDDTAVYYCARTSYYGGMDYWGRGTLVTVAS
VL: DIVMTQTPLSSPVTLGQPASISCRSSQSLVHSNGNTYLHWLQQRPGQPPRLLIYKVSNRFSGVPDRFSGSGAGTDFTLKISRVEAEDVGVYYCSQSTHVPRTFGQGTKLEIKR
notes: IgG made in mammalian cells; also called humanized Ig-1A
As for B3, the Kd in assay [10] came out at 0.7 nM; in assay [8], 1.8 nM; in assay [11], 16.1 nM; in [9] it was 0.696 nM; in assay [12], 9.2 nM; in [13] it was 0.7 nM. In addition, the off-rate (koff) in assay [8] was 0.0013 s⁻¹; in assay [11] it was 0.00901 s⁻¹; in assay [9], 0.00049 s⁻¹; in assay [12], 0.00678 s⁻¹; in assay [14], 0.00059 s⁻¹. Besides, the kon in assay [8] is 720000 M⁻¹ s⁻¹; in assay [11], 494000 M⁻¹ s⁻¹; in assay [9] it was 710000 M⁻¹ s⁻¹; in [12], 730000 M⁻¹ s⁻¹; in [14] it was 680000 M⁻¹ s⁻¹.

As for B4, in [1], the “concentration within EC50-EC80 for proliferation of VEGFR-2-Ba/F3 cells” value turned out to be 0.005 µg/mL.

B5: humanized scFv 1A (scFv)
scFv: QVQLVQSGAEVKQPGASVKVSCKASGYTFTGYNMYWVRQAPGQGLEWMGYIDPYNGDTTYNQKFKGRVTMTTDTSTSTAYMELRSLRSDDTAVYYCARTSYYGGMDYWGRGTLVTVASGGGASGGGGSGGGGSDIVMTQTPLSSPVTLGQPASISCRSSQSLVHSNGNTYLHWLQQRPGQPPRLLIYKVSNRFSGVPDRFSGSGAGTDFTLKISRVEAEDVGVYYCSQSTHVPRTFGQGTKLEIKR
notes: also called 1A scFv; clone 1A
Turning to B5, the Kd in assay [15] was 14.2 nM; in assay [16], 10.4 nM; in assay [17], 14.8 nM; in assay [18], 13.1 nM; in [19] it was 13.1 nM; in [20] it was 13.1 nM. Further, the koff amounted to 0.0109 s⁻¹ in assay [15]; 0.011 s⁻¹ in assay [16]; 0.0104 s⁻¹ in [17]; 0.0108 s⁻¹ in assay [18]; 0.0108 s⁻¹ in [19]; 0.0109 s⁻¹ in assay [20]. For the same molecule, the on-rate constant (kon) in assay [15] was 769000 M⁻¹ s⁻¹; in [16], 1.06e+06 M⁻¹ s⁻¹; in assay [17] it was 707000 M⁻¹ s⁻¹; in [18], 845000 M⁻¹ s⁻¹; in assay [19], 845000 M⁻¹ s⁻¹; in assay [20], 769000 M⁻¹ s⁻¹.
